Reference: article PMC8698322, “Autophagy Is Involved in the Viability of Overexpressing Thioredoxin o1 Tobacco BY-2 Cells under Oxidative Conditions” (Antioxidants, 2021)

Molecular target: the molecule itself
Test: SDS-PAGE (reductant-free sample buffer) and Western blot with anti-His; recombinant HsATG4B treated with 1 mM or 3 mM H2O2 for 5 min at 25 °C in TBSK buffer (50 mM Tris-HCl, 140 mM NaCl, 30 mM KCl, pH 8.0); high-molecular-weight signal on the blot

B1: recombinant human ATG4B, His-tagged (His-HsATG4B) (enzyme, UniProt Q9Y4P1 1-393, looked up)
chain: MDAATLTYDTLRFAEFEDFPETSEPVWILGRKYSIFTEKDEILSDVASRLWFTYRKNFPAIGGTGPTSDTGWGCMLRCGQMIFAQALVCRHLGRDWRWTQRKRQPDSYFSVLNAFIDRKDSYYSIHQIAQMGVGEGKSIGQWYGPNTVAQVLKKLAVFDTWSSLAVHIAMDNTVVMEEIRRLCRTSVPCAGATAFPADSDRHCNGFPAGAEVTNRPSPWRPLVLLIPLRLGLTDINEAYVETLKHCFMMPQSLGVIGGKPNSAHYFIGYVGEELIYLDPHTTQPAVEPTDGCFIPDESFHCQHPPCRMSIAELDPSIAVGFFCKTEDDFNDWCQQVKKLSLLGGALPMFELVELQPSHLACPDVLNLSLDSSDVERLERFFDSEDEDFEILSL
notes: human cysteine protease ATG4B, recombinant, bought; printed size with His tag 47 kDa; No catalogue number is printed; source: bought: Abcam
binding result: binds
